# Laboratory results from publication doi:10.1101/2025.02.28.640611 (bioRxiv, 2025).
# Target: the molecule itself
# Assay: cross-linking
protein,measurement,value
S. mutans ClpX with a C-terminal hexahistidine tag (enzyme) not shown,stoichiometry N,6
